Usually Kd stands for the equilibrium constant for the complex coming apart. Read a high Kd as weaker binding.

B1: Cbx2.VD chromodomain (tags removed) (designed binder)
chain: GEDVFAAECILSKRLRKGKLEYLVKWEGWSSKHNSWEPEENILDPRLLLAFQKKEHEKEVQNR
B2: Cbx7.V1 chromodomain (tags removed) (designed binder)
chain: SAIGDDIFAVESIRKKRVRKGKVEYLVKWEGWPLEYSTWEPEEHILDPRLVMAYEEKEERDRASGYRKRGPK
B3: Cbx7.wt chromodomain (tags removed), O95931 4-75 (protein)
chain: SAIGEQVFAVESIRKKRVRKGKVEYLVKWKGWPPKYSTWEPEEHILDPRLVMAYEEKEERDRASGYRKRGPK
B4: Cbx7.VD chromodomain (tags removed) (designed binder)
chain: SAIGEDVFAVESIRKKRVRKGKVEYLVKWEGWPPKYSTWEPEEHILDPRLVMAYEEKEERDRASGYRKRGPK
B5: Cbx7 Q9D chromodomain (tags removed) (designed binder)
chain: SAIGEDVFAVESIRKKRVRKGKVEYLVKWKGWPPKYSTWEPEEHILDPRLVMAYEEKEERDRASGYRKRGPK
B6: Cbx7 K33E chromodomain (tags removed) (designed binder)
chain: SAIGEQVFAVESIRKKRVRKGKVEYLVKWEGWPPKYSTWEPEEHILDPRLVMAYEEKEERDRASGYRKRGPK
B7: Cbx8.VD chromodomain (tags removed) (designed binder)
chain: GEDVFAAEALLKRRIRKGRMEYLVKWEGWSQKYSTWEPEENILDARLLAAFEEREREMELYGP
B8: Cbx7.V1 chromodomain, His6- and Flag-tagged (designed binder, not shown: small tags and cut ends)
chain: SAIGDDIFAVESIRKKRVRKGKVEYLVKWEGWPLEYSTWEPEEHILDPRLVMAYEEKEERDRASGYRKRGPK
B9: Cbx7.V1 back-mutant E38K, His6- and Flag-tagged (designed binder, not shown: small tags and cut ends)
chain: SAIGDDIFAVESIRKKRVRKGKVEYLVKWEGWPLKYSTWEPEEHILDPRLVMAYEEKEERDRASGYRKRGPK
B10: Cbx7.V1 back-mutant D8E, His6- and Flag-tagged (designed binder, not shown: small tags and cut ends)
chain: SAIGEDIFAVESIRKKRVRKGKVEYLVKWEGWPLEYSTWEPEEHILDPRLVMAYEEKEERDRASGYRKRGPK
B11: Cbx7.V1 back-mutant E33K, His6- and Flag-tagged (designed binder, not shown: small tags and cut ends)
chain: SAIGDDIFAVESIRKKRVRKGKVEYLVKWKGWPLEYSTWEPEEHILDPRLVMAYEEKEERDRASGYRKRGPK
B12: Cbx7.V1 back-mutant L37P, His6- and Flag-tagged (designed binder, not shown: small tags and cut ends)
chain: SAIGDDIFAVESIRKKRVRKGKVEYLVKWEGWPPEYSTWEPEEHILDPRLVMAYEEKEERDRASGYRKRGPK
B13: Cbx7.V1 back-mutant I10V, His6- and Flag-tagged (designed binder, not shown: small tags and cut ends)
chain: SAIGDDVFAVESIRKKRVRKGKVEYLVKWEGWPLEYSTWEPEEHILDPRLVMAYEEKEERDRASGYRKRGPK

One test has as its target H3K9me3 peptide. Description: fluorescence polarization, FITC-peptide 0.5 nM.
Consider B1, for which the Kd was 5 µM.
The molecule B2 yielded a Kd of 7 µM.
Same read-out and setting: the same measure for B3: 30 µM; for B4: 8 µM.
The same measure, in the same setting: the same measure for B5: 10 µM; for B6: 20 µM.
On to B7, for which the Kd came to 20 µM.

The next test addresses H3K9me3 peptide. Description: ITC, peptide titrated into the chromodomain, 25 C.
B2 showed a dissociation constant (Kd) of 7 µM.

A further test concerns the target H3K9me3 peptide. Nature of the test: BLI, biotinylated peptide on streptavidin tips, steady state. Background: BLI is a label-free optical method that tracks binding on a fibre tip over time.
B8 gave a Kd of 4.5 µM.
The same measure, in the same setting: as for B9, the figure is 2 µM; as for B10, 5 µM; as for B11, 10 µM.
B12 displayed a Kd of 3 µM.
In the case of B13, the Kd is 3.5 µM.
